{"source": "the DeepSol protein solubility set", "data": [{"test": "soluble on expression in E. coli; label from the status in PepcDB or PDB records", "values": [{"sequence": "MGSDKIHHHHHHMSVSISEKTKQAYQHAVEQASVSLLRQPQNSMADELRLLAEQLQPNEKRDVYGGGSLINDFEDEVAELLGKPAALFLPTGTLAQPLALRVHADERQRNGVALHPTSHLMLHEHMGFEALWKLNGTTTGFADNPITLNDLKSVQTDDLASVLLELPMREIGGQLPNWDDLVMQSEWARQHNIAMHLDGARLWQVPAAYGCSLPEVCELFDSVYVSFYKDLGGISGAILAGSEGFIEQAKIWARRAGGNIITQYPQVLSARHGLKENLPIMPEAVNYARALGEALSALNGVRVNPETPQVAMFHLHFALKANELSEKITDYASNTGVVLLPLPRAEMNNEAICEVSIGRNAMSQPQSFWLRHFKAFLDTL", "soluble on expression in E. coli": "not soluble"}, {"sequence": "MGSDKIHHHHHHMSVVIEFDKVSRQFVRRQNASTIQERFMGLIRGLPPAEAFWAVRDVSFAVEEGQSIGLVGHNGAGKSTILKLMTRVLEPTSGRVTTQGRIAALLELGSGFHPELSGRENVFLYGSLMGFGRKEMQRKLPEIIEFSEIGPFLDTEVKHYSSGMYTRLAFAVATAVDPDILITDEVLAVGDETFQRKCIDRIYGFRRAGKTIVFVSHALDVVRSLCDVAVWLDHGEMKAYGEAGKVVDAYLADVNERERAEFEERLHSEDDDQIRESRMRRGSREVEITRVQLLDAQGRERITFRTHEPLTIRIHYLAHQRIERPVFGVGINHESGPWLTGPNTGFDKYHIPFIEGAGIIDYHIPRLPFLGGRYLVSASATDSTQLYEFDVHDRMYPLVIHSDGLSQRYGMVFCEGNWSWHG", "soluble on expression in E. coli": "not soluble"}, {"sequence": "MGSDKIHHHHHHMSYLKISDTIVETFRFIHYEQSNFLNRLHGGDMLFFLVETGMISASKVAMGTTLLASLDDVVFKKPVRLGDIVKVRAKTVYIGNTSLEVEVRAFVRDEEVVSAYATYVKVDDLLRPTPVNVKIMAESEDDKRKIDEAKKRRENRLSKIVNRQKMRFYVDDITDGLRYRISNVIHVSPELTYDGRIMSAGKLLKLMDDLGGIICLRYLDHNSSNLYDNSFNAVVTVAVKGLAFYSPIRLNDIILIRAGLVYVGNTSADILINVVREDLNGAKEHVATAYFTYVRVDKDGKPIKIPEYTPVTEREKRLYEEALTRRGLRK", "soluble on expression in E. coli": "not soluble"}, {"sequence": "MGSDKIHHHHHHMTALDFLPNPPIKQELITPLFHLPYPNPSPIDPKVYKEQSNQAKALAQVFKKEEAHDFDYSSGSFLELFLALALEKKKLAIASSLHYNALKAAREVQKLGIEIFWLHPDVKSGVIEPNSLQEARTRGFELFFLPWANEDLLTLNPLESYGFSLDERLFVEASYPLALGIALPLLEKAHWLINGEILGIPRGYGAILGGEIPLHRPLMRANLFGVLHAALKAREILIENDDQKTLFYEHLSALLGENLSLFAPLKSCLPNALPLRFKGIRARSLIQALLLEKITSLNGQECLFGFSKPSSVLQSMGYDEDEARELLSVSFLPFGSIEELERIAKILALRYKQIHLYS", "soluble on expression in E. coli": "not soluble"}, {"sequence": "MGSDKIHHHHHHMTDRSAVPVDSPAGSTRTVILEKALELFAETGFNGVSMRRIAQEVGINPATLYHHFVHKEDLYEQVLRFAYAEQAAHFSALVSIEGTPQSQLGEFIREFAFYIAKDQHFFRLVKREQLEGNSERLKMLVDLLFGKQYEAMVRSVGRVTQAFDTHMLVTSLLGLVLHHYETRHMRQFFVEYMPSQDDPEVVADHCCRLFFFGIQGAGAAQEVPYRSEQSLLSADGEHSRDGAG", "soluble on expression in E. coli": "not soluble"}, {"sequence": "MGSDKIHHHHHHMTEIKYKVITKDAFALPYTIIKAKNQPTKGVIVYIHGGGLMFGKANDLSPQYIDILTEHYDLIQLSYRLLPEVSLDCIIEDVYASFDAIQSQYSNCPIFTFGRSSGAYLSLLIARDRDIDGVIDFYGYSRINTEPFKTTNSYYAKIAQSINETMIAQLTSPTPVVQDQIAQRFLIYVYARGTGKWINMINIADYTDSKYNIAPDELKTLPPVFIAHCNGDYDVPVEESEHIMNHVPHSTFERVNKNEHDFDRRPNDEAITIYRKVVDFLNAITMV", "soluble on expression in E. coli": "not soluble"}, {"sequence": "MGSDKIHHHHHHMTEKWLSIVGIGEDGLQGLSAIARSLVDRAKVIVGGDRHLAMLPTDDQREKIVWTSPISISVDEIIQRRGQSICVLASGDPMCYGIGVTLMRRIPVSEMTIIPAPSAFSLACARMGWSLTEVETLSLNGRPSSLLQSYIYPKARLLILSGGKDTPAIVAKILTNRGYGGSEITVLERMGGTHERIVEGTAASWSETEVAALNAIAVYCIADAGVIPLPRLPGLPDNAYHHDGQLTKREVRAITLAALAPTPGQLLWDVGAGCGSISIEWMRSNARCRAIAIEQNSSRLLYIADNAATLGTPNVQIIEGKAPHALKDLPAPDAIFIGGGVTATGLFDVCWEALRPGGRLVANVVTVEGEQTLFQWHERVGGDLTRVAIQRTEPIGKFLGWRAMAPVTQWVVVK", "soluble on expression in E. coli": "not soluble"}, {"sequence": "MGSDKIHHHHHHMTENNGFQQHVAKVYREHRGERIVPFEYQGKRYWLKQVEHLAGAMRLLKQNSTAALHKEIGILNTLSHIGAPVPAVVDYGDGYMVVEDVGNTINHLLDHTSQALWQPILNDVSVALAKLHSMQLAHGRPALRDISWQAGEVKFIDFEANQQHKSVVSQQVRDVLVFIHSLYRYIGPNNRMINQAIACYRLAGGEAIWQKAKQFLASWQWLYYFARPFRDFGGKDLKPVYWVLWHFRQAPLTLA", "soluble on expression in E. coli": "not soluble"}, {"sequence": "MGSDKIHHHHHHMTEQVVATETVNLSQDSLQIAAYLAQPQAPGSYPGVVVLQEIFGVNGHIRDVTERIAKLGYVAIAPALFQRQAPGFETGYTPQDIEVGRGYAMQTKASELLNDIQAAIDYLKTLPQVKQNGFGCIGFCFGGHVAYLAATLPDIKATASFYGAGIATRTFGGGNPTVTRTPEIKGTLYGFFGTEDASIPPEQIDQIETELEKYNISHRVFRYDGADHGFFCDRRASYNPQAAADAWEQVQQLFKTVLTT", "soluble on expression in E. coli": "not soluble"}, {"sequence": "MGSDKIHHHHHHMTETLVQVQKLAMDFPGQKLFNNLSFDVDRRDFLSIIGENGVGKTTLIRALLNQVKPTSGSIKFRKGTKVGYVPQFRNIERDYPLSIRDFVALNLQNGKMPWLSKMERTQLDEILEETDLVDIQNTRIGRASGGQKQKAYLAQALVDNPDLLILDESTASLDTVRKYELFNLVQHFNQQHDLTVISVTHDFDLMQRYSNRYLMLKEDHYALGEVADIKNEEDLLDV", "soluble on expression in E. coli": "not soluble"}, {"sequence": "MGSDKIHHHHHHMTFEQLLYAVELANHQTLQETADLLHISKSGLSQSISQLENELGVKLFKRTRYGSKLTAQGKELLPLIKQMLSQGVSLTKKAHNLGKSGQIETVRVAYANTMLKPFLNEYLAMYQDVPTKFNMEISQETVTQIIDGIRSHRINLGFIAINDSNKAEIHGLEFKPVHVGHLKLFLSPDNQLVKKQKINIEDLQKQRFALFNDPYNDRIFEHLQYLCGPLKTVIKTDDGWAMYTTIKKANAVALVRDWQTSYSSYEPLQKLPSLDISNLIDDRFYLGWLTNPKYTTSRYTHRYTQEFIKHVDAQIKEC", "soluble on expression in E. coli": "not soluble"}, {"sequence": "MGSDKIHHHHHHMTIFSVRHITSYRYKRPVEFGEHRLMFRPRDSFDQTLLSSHLDVDPKPDYIRWIHDVFGNCVALVGFTGKARELCFGTNIRLDHTQQVEMDLQIDAEALHYPFAYDPEEVVDLERTIKRHFADPDDEVGRWTRQFVRIGQPTETGRLLMTLCYAIHESFIYARRLEHGTQTPLETLRLRRGTCRDFALLMMEAARSLGLAARFVTGYIYVPDRDGSTKLGGGSTHAWCQVYLPGAGWVEFDPTNGIVGNRDLIRVGVARDPKQAVPLSGSYDGDASDFDTMSVQVNVTTDKLSDTAA", "soluble on expression in E. coli": "not soluble"}, {"sequence": "MGSDKIHHHHHHMTKESILTFSQSKAEPAWLQEKRLAAFDKIDDLELPRIERVKFQRWNLGDGTITESPISANVPDFTSFGENPKLVQLGTQTVLESLPAKLVEQGVVFTDFHSALEEIPQVIEKYFATALKFDEDKLSAYHTAYFNSGSVLYVPDNVEIDLPLEGIFLQDSTSNVPLNKHVLIIAGRHAKVNYLERFETIGDSDVKATANIAVEVLAQAGSQVKFAAIDRLGNNITTYISRRGRLDNDASIDWALGVMNEGNVIADFDSDLIGNGSHAELKVVAASSGRQIQGIDTRVTNYGNNSIGHILQHGVILERGTLTFNGIGHIIKGAKGADAQQESRVLMLSDKARSDANPILLIDENEVTAGHAASIGQVDPEDMYYLMSRGIDKETAERLVIRGFLGTVITEIPVKAVRDEMIAVLDEKLDKR", "soluble on expression in E. coli": "not soluble"}, {"sequence": "MGSDKIHHHHHHMTKHLDVGQCLTIIEGTNTALKSYMDHFDFMEAAISRVLELEGSLKGKGGEALLRNYQELQLPAIRAARAFISSMKEMGEKLRSLILSFEPSENGMVSEDFYRNQVTRGYDRFEQFMEQNKAEVDAIAASVSHIIDLGKLDIRHVQDRVDDARKHANDTVEGLYELDHEGMRLMRELQRDMAELKAILKKVTEWTVSGGALLNGVDLNDVRSHFADKTLHTKAPEVSVKLSSPNPLIQYANDFPLRFKYDTMRSIMKVFDLSHHHKWFSNRIKSLPLTSLFIMARWNVNTKSDNYLKVH", "soluble on expression in E. coli": "not soluble"}, {"sequence": "MGSDKIHHHHHHMTKPMHTPPLVPPQAWEAAREQLLVKEKALTRARDALAAERRQMPWMAVEKEYAFEGPEGRVSLVDLFEGRRQLIVYRAFFEPGVFGWPDHACRGCSMVADQVAHLAHLNARDTTLVFVSRAPQADIARLKARMGWQIPWFTVTDSFDADFGVDEWHGTNVFYRDGDRVFRTYFINNRGDEQMGSTWNYLDITPLGRQEVWEDSPEGYPQTPTYKWWNWHDSYVKDAEPDKKWVEVSDAGEAAFRNQD", "soluble on expression in E. coli": "not soluble"}, {"sequence": "MGSDKIHHHHHHMTKQSKTQIRICFVGDSFVNGTGDPECLGWTGRVCVNANKKGYDVTYYNLGIRRDTSSDIAKRWLQEVSLRLHKEYNSLVVFSFGLNDTTLENGKPRVSIAETIKNTREILTQAKKLYPVLMISPAPYIEQQDPGRRRRTIDLSQQLALVCQDLDVPYLDVFPLLEKPSVWLHEAKANDGVHPQAGGYTEFARIVENWDAWLNWFR", "soluble on expression in E. coli": "soluble"}, {"sequence": "MGSDKIHHHHHHMTKRIMFTGGSGKAGRHVVQYLVEQGCQVLNIDTKPLDNPKVRTLITDITDSGQVFNALSSYMGLHEFDPSLRPQPVDAVVHFAAIPRIMITPDNEVFRINAMGTYNVIEAAVKLGIRKVIVASSETTYGLVFANEPRDPKYFPLDEEYDVDPMDSYALSKVVNEKTARAFAQRNGTDIYALRIGNVIEPHEYSLFPKWFADPGFRKRIAWSYIDARDLGQITLRAIEKDGLGYQVFNAANDDTSSDLPTAELLKRFYPNVPVKAALGEYETLLSNRKARDMLGFRPEHSWRKYVK", "soluble on expression in E. coli": "not soluble"}, {"sequence": "MGSDKIHHHHHHMTLEIAQKRTIKLLKSSTPKEKLNKFVKGYVPTHYKRLSISMEKAIELAIIGATESLAYYGDRLYFTQALLMGAVVSGEYDNIIVVTPSQYGKSWLSSRIAVWLADHNRRCYVAGGKKDTTDIIMQHVTDTLQTVDESIARKLLEPVDKLERLQTGLSKRKISFSGGGSIEGISLGEHFKGNKSGNQAIGRGGDYIIDESAFVSNETYAELGRRNFANVDGKNYLSFEISNPHNKGRFYDKLTQENIPKGMLVVWADVRTAFEEDRVKSIEQVISSEFFQNKSTCQRYFLCELPDENEDGMFGTPQTEEEHTEKNWEYFLGVDSAYKGKDKIKATLSALDAQGQVHVIDTIEIEKGDWQDGVTSKKIITQLLMIIEHFEVKGVCVDVGYGVYIVEGLAHINGDFELHGINFGAGTTKERVEKNHYSAKYGANKRAEMHIDLQENIDNRNIFFTEKVYEEVIDELVLVSSKIKSNGKTAIVPKEEIKAKLGHSPDTLDSVLLSLHAIILYKLNERFYIYS", "soluble on expression in E. coli": "not soluble"}]}]}
